Reference: paper PMC5481204

Target: full length T216A Mos1 transposase (Drosophila mauritiana)
Assay: crystal structure; Mos1 strand transfer complex (STC): T216A Mos1 transposase and strand transfer product DNA at 50 uM each in 25 mM PIPES-NaOH pH 7.5, 250 mM NaCl, 20 mM MgCl2, 1 mM DTT; sitting drop, 30% (v/v) MPD, 0.1 M sodium cacodylate pH 6.5, 0.2 M magnesium acetate; 3.3 Å; one STC in the asymmetric unit

## full length T216A Mos1 transposase (enzyme)
  stoichiometry N: 2
